Reference: patent publication US20040009530A1 (ZYOMYX, published 2004)

B1: engineered rubredoxin protein D7 (designed binder)
chain: MAKWVCKICGYIYDEDAGEDPGHRSRYISPGTKFEELTTGWTCPICRCTNSTTSTNCFEKLED
notes: Engineered Pyrococcus furiosus rubredoxin; No tags are stated for the assayed construct
B2: engineered rubredoxin protein G3 (designed binder)
chain: MAKWVCKICGYIYDEDAGFVEYYGHPNISPGTKFEELSRYVDGWTCPICSYGMPIFEKLED
notes: Engineered Pyrococcus furiosus rubredoxin
B3: engineered rubredoxin protein F3 (designed binder)
chain: MAKWVCKICGYIYDEDAGFVEYYDDGVISPGTKFEELHTAWTCPICSCTYNPFEKLED
notes: as for B1
B4: engineered chaperonin protein SP4-5 (designed binder)
chain: DDDRIPASGIVIARPGESAFMPDVVKNAKIALIDSALEIKKTEIEAKVQISDPSKIQDFLNQETNTFKQMVEKIKKSGANVVLCNGDQADVAYDYLAKEGIYAVHFVDESDMEKLAKATGAKIVTDLDDLTPSVLGEAETVEERKYTEGVPTYVMGCKGSVSHHHHHHSEQKLISEEDLLRLE
notes: also called engineered protein clone SP4-5; not shown: FLAG-tag from the expression vector upstream of the insertion site
B5: engineered chaperonin protein SP4-1 (designed binder)
chain: DDDRIPASGIVIDRVGRDSNMPHVVKNAKIALIDSALEIKKTEIEAKVQISDPSKIQDFLNQETNTFKQMVEKIKKSGANVVLCADDYAHVAYDYLAKEGIYAVGYVTESDMEKLAKATGAKIVTDLDDLTPSVLGEAETVEERPWGNNKETYVMGCKGSVSHHHHHHSEQKLISEEDLLRLE
notes: Protein-level screening was 'similar to that for the HP6054 selections', that is, with a FLAG-tag vector and anti-FLAG-HRP detection; not shown: FLAG-tag from the expression vector upstream of the insertion site
B6: engineered chaperonin protein SP4-2 (designed binder)
chain: DDDRIPASGIVIVGHNKVPSMPRVVKNAKIALIDSALEIKKTEIEAKVQISDPSKIQDFLNQETNTFKQMVEKIKKSGANVVLCGYKNLTVAYEYLAKEGIYAVYHVDESDMEKLAKATGAKIVTDLDDLTPSVLGEAETVEERGTANAPATYVMGCKGSVSHHHHHHSEQKLISEEDLLRLE
notes: not shown: FLAG-tag from the expression vector upstream of the insertion site

Molecular target: T1, human chorionic gonadotropin (human, UniProt P01215 25-116; P0DN86 21-165, biotinylated using an NHS-SS-biotin reagent (sites not given))
T1 construct: The target was biotinylated and immobilized on Neutravidin- or Streptavidin-coated strip plates; also called hCG
T1 sequence (P01215 25-116, chain 1 of 2, other chains not shown): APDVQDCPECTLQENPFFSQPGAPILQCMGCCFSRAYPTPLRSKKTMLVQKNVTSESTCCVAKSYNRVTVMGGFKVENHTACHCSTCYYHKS
Test: affinity ELISA, hCG immobilized, serial dilution of engineered rubredoxin
Source text: The method used to identify engineered rubredoxin proteins that bind to human chorionic gonadotropin (hCG) were the same as the method used to identify chaperonin proteins that bind to hCG described in Section 6.9.6, above. The method identified three engineered rubredoxin proteins that could bind hCG. In the affinity ELISA assays, the engineered rubredoxin was serially diluted and the ELISA signal was plotted as a function of engineered rubredoxin concentration to determine EC₅₀s, as above. The following EC₅₀ values for the three library proteins was measured: […]

Row | EC50 [nM] | Binder
1 | 4000 | B1
2 | 81 | B2
3 | 35 | B3

Molecular target: T1, human chorionic gonadotropin
Test: affinity ELISA, hCG immobilized, serial dilution of engineered protein
Source text: A total of 192 plaques were screened from the PEG precipitated and non-PEG precipitated eluted phage of round three (FIG. 9). Screening at the phage and protein level was similar to that for the HP6054 selections. The screen identified three engineered chaperonin proteins that were solubly expressed in E. coli and could bind hCG. Both the PEG-precipitated and non-PEG-precipitated selections gave similar results. In these affinity ELISA assays, the engineered chaperonin was serially diluted and the ELISA signal was plotted as a function of engineered chaperonin concentration to determine EC₅₀s, as above. The following EC₅₀ values for the three engineered library proteins was measured: […]

Row | EC50 [nM] | Binder
4 | 630 | B4
5 | 5400 | B5
6 | 48000 | B6
